Consider two substances from PMC6138639, “The ZZ-type zinc finger of ZZZ3 modulates the ATAC complex-mediated histone acetylation and gene activation” (Nature Communications, 2018).

This assay concerns the target ZZZ3 ZZ domain (aa 800–903), GST cleaved (human) (UniProt Q8IYH5). Put plainly: other fluorescence titration; tryptophan fluorescence; 1.0 µM ZZZ3 ZZ (aa 800–903) with increasing histone peptide; 25 °C; 20 mM Tris–HCl pH 7.2, 150 mM NaCl, 1 mM DTT; triplicates.

Chain of ZZZ3 ZZ domain (aa 800–903), GST cleaved (human) (Q8IYH5 800-903): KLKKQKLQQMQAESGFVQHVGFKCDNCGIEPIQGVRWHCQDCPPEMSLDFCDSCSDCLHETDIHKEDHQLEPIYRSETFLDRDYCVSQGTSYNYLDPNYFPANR

“H3K4ac peptide of the tryptophan fluorescence and NMR titration experiments” yielded a Kd of 8.2 µM. In other words, the single-digit micromolar range.

Substance “unmodified H3 peptide of the tryptophan fluorescence and NMR titration experiments” returned a Kd of 29 µM. This Kd lies about 3.5-fold higher than the previous one.
